Experimental data reported in patent US20030175848A1, “Substituted dithiobisnitrobenzenes and their applications” (Institut Pasteur De Lille, priority 1998, published 2003).

Substrate: CN(C)CCCNC(=O)c1cc(SSc2ccc([N+](=O)[O-])c(C(=O)NCCCN(C)C)c2)ccc1[N+](=O)[O-]
Experiment: purified protein, by the assay type
Conditions: other: substrate of recombinant TcTR, 25° C., buffer A pH 7.25, 0.2 mM NADPH, * = estimated at low substrate concentrations (15-200 μM), inhibition effects
Method: The TcTR concentration is determined by measuring the number of subunits containing FAD at 461 nm (ε=11.3 mM^−1×cm^−1); the enzymatic activity is tested as specified in (28). One TR unit corresponds to 1 μmol of T(S)2 reduced per minute at 25° C. in a buffer A (20 mM Hepes, pH 7.25 containing 1 mM EDTA and 0.15 M KCl).
The enzyme stock solutions used for the kinetic determinations are pure (verification in SDS-PAGE) and have a specific activity of 137 U/mg in the T(S)2 reduction test performed in the presence of 500 μM NADPH and 518 μM T(S)2 in a buffer A.
All the kinetic studies are carried out in the same buffer at 25° C., in the presence of 200 μM of NADPH.
All the tests were carried out at 25° C. in 20 mM HEPES, 1 Mm EDTA, 150 mM KCl, at pH 7.25 (buffer A) and in the presence of 0.2 mM NADPH.

B1: trypanothione reductase from Trypanosoma cruzi (TcTR) (Trypanosoma cruzi) (protein)
chain: MMSKIFDLVVIGAGSGGLEAAWNAATLYKKRVAVIDVQMVHGPPFFSALGGTCVNVGCVPKKLMVTGAQYMEHLRESAGFGWEFDRTTLRAEWKKLIAVKDEAVLNINKSYEEMFRDTEGLEFFLGWGSLESKNVVNVRESADPASAVKERLETENILLASGSWPHMPNIPGIEHCISSNEAFYLPEPPRRVLTVGGGFISVEFAGIFNAYKPKDGQVTLCYRGEMILRGFDHTLREELTKQLTANGIQILTKENPAKVELNADGSKSVTFESGKKMDFDLVMMAIGRSPRTKDLQLQNAGVMIKNGGVQVDEYSRTNVSNIYAIGDVTNRVMLTPVAINEAAALVDTVFGTNPRKTDHTRVASAVFSIPPIGTCGLIEEVASKRYEVVAVYLSSFTPLMHNISGSKYKTFVAKIITNHSDGTVLGVHLLGDNAPEIIQGVGICLKLNAKISDFYNTIGVHPTSAEELCSMRTPSYYYVKGEKMEKPSEASL
Q: For B1, which Km is on record?
A: 35 µM

Q: What about the kcat of the same protein?
A: 125 s⁻¹

Q: What about the kcat/Km of the same protein?
A: 3.6e+06 M⁻¹ s⁻¹
